B1: V74 (antibody, V domains shown)
VH: EVQLVQSGAEVKKPGESLKISCKGSGYSFASYWIAWVRQMPGKGLEWMGIIYPGDSDVRYSPSFQGQVTISADKSISTAYLQWSSLKASDTAMYFCARGRTFYYDSSDYFDYWGQGTLVTVSS
VL: DIQMTQSPSSVSASVGDRVTITCRASQGISSWLAWYQQKPGKAPKLLIYAASSLQLGVPSRFSGSGSGTDFTLTISSLQPEDFATYFCQQADSFPRTFGQGTKLEIK
notes: also called 6E7 variant V74
B2: V86 (antibody, V domains shown)
VH: B1 VH with A30G, I34L, V58T, Q65E, G99S
VL: B1 VL with L54R, L56N
notes: also called 6E7 variant V86
B3: V75 (antibody, V domains shown)
VH: B1 VH with A30T, V58T
VL: B1 VL with L56A, F94Y
notes: also called 6E7 variant V75
B4: V87 (antibody, V domains shown)
VH: B1 VH with A30R, S63D, G99S
VL: B1 VL with L56W
notes: also called 6E7 variant V87
B5: V89 (antibody, V domains shown)
VH: B1 VH with A30T, V58T, G99Q
VL: B1 VL with L56N, F94H
notes: also called 6E7 variant V89
B6: V76 (antibody, V domains shown)
VH: B1 VH with A30G, V58T, S63E, G99Q, F110S
VL: B1 VL with L56K, T69R
notes: also called 6E7 variant V76; LV-109/HV-110
B7: V77 (antibody, V domains shown)
VH: B1 VH with A30T, V58T, G99Q
VL: B1 VL with L54R, L56N
notes: also called 6E7 variant V77
B8: V85 (antibody, V domains shown)
VH: B1 VH with A30R, I50T, V58T, G99S
VL: B1 VL with L54R, L56N
notes: also called 6E7 variant V85
B9: V84 (antibody, V domains shown)
VH: B1 VH with S28G, A30T, V58T, G99Q, F110S
VL: B1 VL with A50G, L56N
notes: also called 6E7 variant V84
B10: V88 (antibody, V domains shown)
VH: B1 VH with A30G, V58T, G99Q
VL: B1 VL with S53R, L56R, F94S
notes: also called 6E7 variant V88

Data on ten molecules can be found in patent publication US20250326839A1 (VIGIL NEUROSCIENCE, published 2025).

Positions count from the first letter of the chain named.

In one assay the target is T1, human TREM2 (human, UniProt Q9NZC2 19-174, limits assumed).
T1 construct: also called triggering receptor expressed on myeloid cells 2
T1 sequence: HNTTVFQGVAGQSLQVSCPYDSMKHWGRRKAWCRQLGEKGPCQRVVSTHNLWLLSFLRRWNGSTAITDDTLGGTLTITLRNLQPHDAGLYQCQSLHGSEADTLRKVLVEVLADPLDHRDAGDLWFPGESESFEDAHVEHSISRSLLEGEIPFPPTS
The experiment in a line: 2nd screen, 2 nM.
On to B1, for which the “Binding Signal” value was 2.54 fold over 6E7 parental antibody.

Consider B2, for which the “Binding Signal” value was 5.17 fold over 6E7 parental antibody.

On to B3, for which the “Binding Signal” value was 3.74 fold over 6E7 parental antibody.

Take B4: the “Binding Signal” value is 4.86 fold over 6E7 parental antibody.

Consider B5, for which the “Binding Signal” value was 0.94 fold over 6E7 parental antibody.

Consider B6, for which the “Binding Signal” value is 4.34 fold over 6E7 parental antibody.

Take B7: the “Binding Signal” value is 0.83 fold over 6E7 parental antibody.

In the case of B8, the “Binding Signal” value was 5.41 fold over 6E7 parental antibody.

B9: the “Binding Signal” value is 1.45 fold over 6E7 parental antibody.

With B10, the “Binding Signal” value was 5.57 fold over 6E7 parental antibody.

For another assay, the target named is T1, human TREM2. The experiment in a line: 1st screen, 10 nM Ab.
With B1, the “Binding Signal” value was 3.94 fold over 6E7 parental antibody.

Consider B2, for which the “Binding Signal” value was 4.8 fold over 6E7 parental antibody.

As for B3, the “Binding Signal” value is 4.64 fold over 6E7 parental antibody.

On to B4, for which the “Binding Signal” value was 3.84 fold over 6E7 parental antibody.

As for B5, the “Binding Signal” value was 1.33 fold over 6E7 parental antibody.

For B6, the “Binding Signal” value was 4.57 fold over 6E7 parental antibody.

In the case of B7, the “Binding Signal” value is 1.43 fold over 6E7 parental antibody.

For the molecule B8, the “Binding Signal” value is 5.41 fold over 6E7 parental antibody.

Regarding B9, the “Binding Signal” value was 1.44 fold over 6E7 parental antibody.

B10: the “Binding Signal” value was 4.92 fold over 6E7 parental antibody.

Another assay has as its target T1, human TREM2. Nature of the assay: 2nd screen, 10 nM.
As to B1, the “Binding Signal” value is 4.01 fold over 6E7 parental antibody.

Regarding B2, the “Binding Signal” value is 5.02 fold over 6E7 parental antibody.

Take B3: the “Binding Signal” value was 4.52 fold over 6E7 parental antibody.

Consider B4, for which the “Binding Signal” value is 3.93 fold over 6E7 parental antibody.

B5: the “Binding Signal” value is 1.46 fold over 6E7 parental antibody.

Regarding B6, the “Binding Signal” value was 4.93 fold over 6E7 parental antibody.

Turning to B7, the “Binding Signal” value is 1.38 fold over 6E7 parental antibody.

For B8, the “Binding Signal” value was 5.37 fold over 6E7 parental antibody.

Turning to B9, the “Binding Signal” value was 1.62 fold over 6E7 parental antibody.

Regarding B10, the “Binding Signal” value is 5.3 fold over 6E7 parental antibody.
